Measurements as given in patent US10752676B2 (UCB Biopharma SPRL, priority 2011, dated 2020).

Legend:
[1] = tested on: Clostridium difficile strain ATCC43596; assay: Anti-C. difficile toxin Mab hamster infection study; format: in vivo, Golden Syrian hamsters; conditions: 5 mg/kg twice a day for 5 days (p.o.) on days 1-5
Experimental: The hamster infection study was performed by Ricerca Biosciences LLC, Cleveland, Ohio, USA. The study protocol was approved by the Ricerca IACUC committee. Active and control components (composition and dose) were blinded to Ricerca staff until after completion of the planned 28 day study period.
Golden Syrian male hamsters (weight 82-103 g, 54 days old) were individually housed in HEPA filtered disposable cages and fed Teklad Global Diet 2016 and water ad libitum. After acclimatisation, hamsters were pre-dosed (i.p.) with Mab mixtures or PBS (vehicle control) once a day for each of 4 days: days −3, −2, −1 and 0. Two doses of Mab were investigated: high dose=50 mg/kg each of anti-TcdA and anti-TcdB components and low dose 5 mg/kg each of anti-TcdA and anti-TcdB components.
Hamsters were sensitised (day −1) with 50 mg/kg of Clindamycin phosphate in PBS (s.c.) before being challenged 1 day later (day 0) with 3.4×106 c.f.u. of vegetative cells from strain ATCC43596. […]
Viability checks were performed on animals twice a day, animals found to be in extremis were euthanised and counted as dead. Body weights were determined on each day of dosing, then twice weekly and before euthanising survivors. […] Survival curves were analysed using the P value from the log rank test compared to the Bonferroni corrected threshold of P=0.005. […]

[2] = Estimation of isoelectric point (pI) by capillary IEF; format: physicochemical
Experimental: Samples were prepared by mixing the following: 30 ul Protein sample at 2 mg/ml, 0.35% Methylcellulose, 4% pH3-10 ampholytes (Pharmalyte), synthetic pI markers (4.65 and 9.77), 1 ul of each stock solution, and HPLC grade water to make up the final volume to 200 ul. The mixture was then analysed using iCE280 IEF analyzer (pre-focusing at 1500V for 1 min followed by focusing at 3000V for 6 mins). The calibrated electropherograms were then integrated using Empower software (from Waters)

[3] = Thermal stability (Tm) measured via Thermofluor assay; format: physicochemical; conditions: PBS pH 7.40
Experimental: This method uses Sypro orange fluorescent dye to monitor the unfolding process of protein domains. The dye binds to exposed hydrophobic regions that become exposed as a consequence of unfolding which results in a change to the emission spectrum.
The sample (5 ul at 1 mg/ml) is mixed with a 5 ul of a stock solution of Sypro orange (30×) and the volume made up to 50 ul with PBS, pH 7.40.
10 ul aliquots of this solution is applied to wells in a 384 well plate (n=4).
The plate is placed in a 7900HT fast real-time PCR system containing a heating device for accurate temperature control. The temperature is increased from 20° C. to 99° C. (Ramp rate of 1.1° C./min). A CCD device simultaneously monitors the fluorescence changes in the wells. An algorithm is used to process intensity data and take into account multiple transitions.

[4] = target: TcdB1234 (Clostridioides difficile, UniProt P18177); conditions: Purified Mab 3 point titration
Experimental: (§1) Kinetic constants for the interactions of anti-C. difficile TcdA and TcdB antibodies were determined by surface plasmon resonance conducted on a BIAcore 3000 using CM5 sensor chips. All experiments were performed at 25° C. Affinipure F(ab′)2 fragment goat anti-human IgG, Fc fragment specific (Jackson ImmunoResearch) was immobilised on a CM5 Sensor Chip (GE) via amine coupling chemistry to a capture level of ≈7000 response units (RUs).
(§2) Double referenced background subtracted binding curves were analysed using the BIAevaluation software (version 3.2) following standard procedures. Kinetic parameters were determined from the fitting algorithm

[5] = target: TcdA456 (Clostridioides difficile, UniProt P16154); conditions: Purified Mab 5 point titration
Experimental: as §1, §2

Row | Molecule | survival [1] | measured pI [2] | Tm(CH2) [3] [°C] | Tm(Fab) in PBS [3] [°C] | ka [4] [M⁻¹ s⁻¹] | kd [4] [s⁻¹] | ka [5] [M⁻¹ s⁻¹] | kd [5] [s⁻¹]
1 | CN[C@H](CC(C)C)C(=O)N[C@H]1C(=O)N[C@@H](CC(N)=O)C(=O)N[C@H]2C(=O)N[C@H]3C(=O)N[C@H](C(=O)N[C@H](C(=O)O)c4cc(O)cc(O)c4-c4cc3ccc4O)[C@H](O)c3ccc(c(Cl)c3)Oc3cc2cc(c3O[C@@H]2O[C@H](CO)[C@@H](O)[C@H](O)[C@H]2O[C@H]2C[C@](C)(N)[C@H](O)[C@H](C)O2)Oc2ccc(cc2Cl)[C@H]1O [vancomycin] | all died on days +10 and +11 | – | – | – | – | – | – | –
2 | 1134.g5: anti-toxin B antibody; light chain variable SEQ ID NO: 147, heavy SEQ ID NO: 149 (antibody, V domains shown, Antibody variable region for anti-TcdB antibody 1134 (heavy chain); Antibody variable region for anti-TcdB antibody 1134) VH: EVQLQESGPGLVKPSETLSLTCTVSGFSLNSYTITWVRQPPGKGLEWIAAISGGGSTYFNSALKSRVTISRDTSKSQVSLKLSSVTAADTAVYYCTRPRWYPRSYFDYWGRGTLVTVS VL: DVQLTQSPSFLSASVGDRVTITCKASKSISNHLAWYQEKPGKANKLLIHSGSTLQPGTPSRFSGSGSGTEFTLTISSLQPEDFATYYCQQYDEYPYTFGQGTRLEIK | – | 9.2 | 69.2 | 76.4 | 509000 | 2.45e-05 | – | –
3 | CA995: humanised anti-toxin A IgG1; light chain variable SEQ ID NO: 37, heavy SEQ ID NO: 39 (antibody, V domains shown, Antibody variable region for anti-TcdA antibody 995 (heavy chain); Antibody variable region for anti-TcdA antibody 995) VH: EVQLVESGGGLVQPGGSLRLSCTASGFSLSNYDMIWVRQAPGKGLEYIGFINTGGITYYASWAKGRFTISRDSSTVYLQMNSLRAEDTATYFCARVDDYIGAWGAGLWGQGTLVTVS VL: DVVMTQSPSTLSASVGDRVTITCQASQSINNYFSWYQQKPGKAPKLLIYGAANLASGVPSRFKGSGSGTEYTLTISSLQPDDFATYSCQNNYGVHIYGAAFGGGTKVEIK | – | 8.5 | – | 71 | – | – | 287000 | 3.42e-05
